Measurements as given in the supplement of paper PMC12764529.
± gives the half width of the 95% confidence interval.

assay: folding stability dG unfold from chymotrypsin proteolysis; higher = more stable
Procedure, shortened: (§1)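 Unfolding free energy was derived, per protease or combined, by relating Bayesian-fitted K50 values from sequencing counts to a sequence-predicted unfolded-state K50 and a shared folded-state K50. The underlying digests exposed cysteine-free mini-proteins under 80 residues, in a PA-tagged cDNA display construct, to trypsin and chymotrypsin at 11 threefold-diluted concentrations and to a no-protease condition. A filter kept only designs with AlphaFold2 dimer inter-PAE above 15.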

Sequence	folding stability dG unfold
SAGMVVTINFSIPETGETITITIPVPEDDPVVKALGAPSAEDIAAYLAPQLKEKGINVQNPTVTVTEPSSAG [r5_722_JUSTAS]	0.928 ± 0.053 kcal/mol
SAGGSAGGMARVLRVEPAEGDDTFYVEVEFYDPATGEVTLGRFRIPADRPDLATNIPADSWVVLSAGGSAGG [r6_978_TrMRF]	1.56 ± 0.059 kcal/mol
SAGGSAGGSAGKIEAFPGKNTVLLKISIPRRDPNSDSIYTLHAVIPATPEQAKKFLELGISAGGSAGGSAGG [r11_389_TrMRF]	0.899 ± 0.14 kcal/mol
SAGGSAGGSAPNYIKIRIKFQSDGKRHSMEIFIPDNPKKAKQIAKEMANMGGIEDVEVERYSAGGSAGGSAG [r3_310_TrROS]	0.659 ± 0.13 kcal/mol
KAYKVVFPLPKEGRTVVVYVPEEHGKPLTEEEIAALLREAYPDKEPADLPAEELAKILAAKEGVVRVEVEGS [r1_463_TrMRF]	0.995 ± 0.12 kcal/mol
SAGGKMKLEVEILENEGTILVRFHFGDKVLEIPLPFPNLTPEDVKEAAEEIAKKLKEEYNIEEVEIESAGGS [r16_249_TrMRF]	3.18 ± 0.23 kcal/mol
SAGMVVTERTEPATGRPYTVTTEEDGSVTGSYPATGDTRSTTLNDRTTFSLPTTSPEVAAAQVEAALAASAG [r14_561_JUSTAS]	-0.313 ± 0.15 kcal/mol
SAGGGPAKEVPILALIKARNPETGEEYELPIVITANSKEDVEAAKGLVDTLAEALRELGFTEVEVEIGSAGG [r13_360_TrMRF]	2.72 ± 0.042 kcal/mol
SAGDMIKIPFNFKDPNGAKPKELEVMISPDPGVITAMFKYKHNNEPKYYMISIPIDPGNGKIEIEIQPMSAG [r5_136_TrROS]	1.65 ± 0.17 kcal/mol
SAGGKPLLIKVKVRLKNGKELTITVREGESLEEILARARELLGKPIEVEKIEVIPLPPKKEVKKKEKSAGGS [r8_285_TrROS_Hall]	2.86 ± 0.072 kcal/mol
SAGGSAGGSAMPKTTVYTIPYESDEEAEARIEEIKAEARARNPEAKVTVTPAGESVNVTIVGSAGGSAGGSA [r18_469_JUSTAS]	-0.116 ± 0.19 kcal/mol
SAGGDWVPIEFTIMVPAEELQEGKPPTAEDIVEELFPPNFNVDIDVQQFPGNGYVYATVKIWVPPGMPSAGG [r13_862_TrROS]	2.46 ± 0.098 kcal/mol
SAGGSMKIVEIKIKRNKNGKLTIEIKVELSEEELEDKEKRKKLIEELAKKLAEELEKKFGIKVEVPSAGGSA [r2_306_TrROS_Hall]	3.28 ± 0.091 kcal/mol
SAGGSAGGSAGPITVPPGAVLLSVEEEGERTRVTVRLPGSGVVETYTFEPGEPVVVELPGSAGGSAGGSAGG [r11_774_JUSTAS]	2.941 ± 0.016 kcal/mol
SAGGSLKDMPVEDLAKYFARKMGYPITDVKVERNPDPPWIKINIEMEHPNDGRRHPHEIWIPKDDISAGGSA [r2_156_TrROS]	1.3 ± 0.11 kcal/mol
SAGGSAGGSAGDKNGKPPPKIEIVPIRMSFRFPELGWWIEIDIYVIKDPAIMISISLYPYSAGGSAGGSAGG [r11_883_TrROS]	5.25 ± 0.17 kcal/mol
SKIEIDEFPWERNPDDGYATIQIKIKVRDPDKKKKDIPHEFPPGSSPDQFWDQIENRAQNNGIKDVEISWSA [r9_1203_TrROS]	-0.0831 ± 0.11 kcal/mol
SDKVEIWIPIPDGFWVRIKYDKPGKREITIWMPEDNPEFRKHGSMDQFIKHLARKLGLDPDKVKVDMYPMSA [r9_401_TrROS]	4.11 ± 0.098 kcal/mol
SAGMTALFTDSSGKEVTFSHPNLELTVDPETGVVSAYEPESNLKVEVKVAPDKVTVTVYSGSSSKEIPLSAG [r5_786_JUSTAS]	0.956 ± 0.16 kcal/mol
SAGGSAGGGPPGTTTTTISTPDGPVTVTVSPTSVTVTRPGSNETVTSSGSPTTTLEEIAAEIAASAGGSAGG [r6_317_JUSTAS]	1.58 ± 0.052 kcal/mol
SAGGGSMIKKTLEEEPVGESTVSKSTVTLPDGTPVSVTSTTTKVGNTWTTTTTTNYGSSTTTTTTTTSAGGS [r16_476_JUSTAS]	0.419 ± 0.11 kcal/mol

assay: folding stability dG unfold (combined trypsin and chymotrypsin); higher = more stable
Procedure, shortened: as §1

Sequence	folding stability dG unfold
SEEEYLVIEVEFEVENPEEAREFAERLARELPLDEIESLEVEVEPREVFVEGEPVGPVYRFRVRAVVRPRSA [r9_605_TrMRF]	2.77 ± 0.079 kcal/mol
SAGGMKPGEKVLVKITLKKEVFKNENGEEVKVEEKEILIELEVDSLEEALEALKKLLPPGAEIEVLPSAGGS [r16_282_TrROS_Hall]	3.24 ± 0.13 kcal/mol
SATIEIPIKVNDRKFRISIERMPDGWIKIQIRDPNMPKDAVKDALREILGPGWKIDTDPETNTIYIPFKSAG [r14_370_TrROS]	2.67 ± 0.059 kcal/mol
SAGGSAGGSVVPVKAVFKLPDGDEVEGLALVDNRPDGSLVVLFQLPGTGETVGSATAELLKVEGSAGGSAGG [r6_254_TrMRF]	0.638 ± 0.11 kcal/mol
SKEKVKVEIKLTVTKVFPPEELEKDPKTGKYRNKDTGKWFEPPKVVVKELTLTIEMSKEEVEKLLKELLKSA [r9_165_TrROS_Hall]	2.29 ± 0.095 kcal/mol
SKKKKTIVIELTKDELKELLKKLKVEEGDEVEIFVRNKDGSIYKLTIKNGKITKIEPFKGVPNKVVIVIKSA [r9_849_TrROS_Hall]	3.07 ± 0.3 kcal/mol
SAGGSAGGSMVEITFPPDLSEEEAEALAKELEEKYNKKVKITKVPPEIPVPLPQYDPTNWVEVSAGGSAGGS [r12_159_JUSTAS]	-0.108 ± 0.2 kcal/mol
SAGGSAGGSAGGTVTFFEENEFVIDVPDPLTGRPIRIEVPGDPNKPEEIEARAEELRLSSAGGSAGGSAGGS [r10_379_JUSTAS]	0.0609 ± 0.072 kcal/mol
SAGDALKDIFPGLEIEPHEKPVKVPPGKPVEFAFIIRMPDGEIMIFDMHFNPGGEVRVRVLTIKLPEKSAGG [r19_125_TrROS]	3.96 ± 0.27 kcal/mol
SAGGSAGGPSPNQPERQQVQVEAKIRFPDPNGKEWTIEITAYGSVGDARDAARSLAREIKNGKISAGGSAGG [r6_944_TrROS]	-0.484 ± 0.16 kcal/mol
SAGGKTITLPNGITITVNEDGTVTVTVTVDGKTLTVTVKVDSLEEALAAILEELRRLLKPPEVTVVKPSAGG [r13_896_TrROS_Hall]	3.07 ± 0.17 kcal/mol
SEVEVTVTVTLTRRLPDGREREVTVTLTLRLEFDPELSEEELESPELRKRLEELRREALERARRLAEELASA [r9_237_TrROS_Hall]	> 6 kcal/mol
SAGGSAGGSITVEVEVEIVDEVEDPNTQGYRPVRVSRIPITIPVPESWSEEDIEAAVKEAIEKASAGGSAGG [r6_494_JUSTAS]	1.7 ± 0.15 kcal/mol
SAGFSIVEVEPDEDTYTITIEYTLPNGTVKTKDLPLKAKNPVLLEISENEITIYLPDTNEVVTLPVSLISAG [r14_947_JUSTAS]	1.87 ± 0.29 kcal/mol
SAGGMPKLTVTITFEPPDGSTTTTRDFTSVEEAIEALRAVPDIPVEPLEDDVIRARRPDSETTVTIVESAGG [r13_143_JUSTAS]	-0.171 ± 0.11 kcal/mol
SAGGSAGGSMPKKTYEFEIEYEDPEEAVEKAIREFEEETGEKIEEVEVEYDPEKGIVKITLVKSAGGSAGGS [r12_265_JUSTAS]	1.27 ± 0.21 kcal/mol
SAGGSAGGSDDMIPIPFKIKLKDPNGKPHEFPVTIWINPEDGMIMIRYPNQPIMIDPDKIEIESAGGSAGGS [r20_48_TrROS]	1.01 ± 0.16 kcal/mol
SAGGSAGGGGMMKTITIPLEELKAKLAKETGKPLTIEEIKEALKKEGIKLLSVDKEKGTITISESAGGSAGG [r6_767_JUSTAS]	2.16 ± 0.13 kcal/mol
SGSTHTVRPPGGLTLTFTFSTDGTTEEAAQALKEALAAALPPDVTVTFDRIDPDKPVTPDEAATVDATVVSA [r9_178_JUSTAS]	1.21 ± 0.17 kcal/mol
SAGGEIKPGQTVRIRITVYNLETGEEKTIEVEVPAGKTLEEVLAELFDNLSEEERKNLVVRIEIEPVSAGGS [r16_321_TrROS_Hall]	4.9 ± 0.26 kcal/mol
SAGGSAGGSAGGMIKTKDGKVLEFKSLEEALAALKELGVDEVEIEELEPEGVVKVKVKPSAGGSAGGSAGGS [r10_1191_TrROS_Hall]	1.11 ± 0.11 kcal/mol

Sequence	folding stability dG unfold
SAGMVVTINFSIPETGETITITIPVPEDDPVVKALGAPSAEDIAAYLAPQLKEKGINVQNPTVTVTEPSSAG [r5_722_JUSTAS]	0.705 ± 0.051 kcal/mol
SAGGSAGGMARVLRVEPAEGDDTFYVEVEFYDPATGEVTLGRFRIPADRPDLATNIPADSWVVLSAGGSAGG [r6_978_TrMRF]	1.25 ± 0.046 kcal/mol
SAGGSAGGSAGKIEAFPGKNTVLLKISIPRRDPNSDSIYTLHAVIPATPEQAKKFLELGISAGGSAGGSAGG [r11_389_TrMRF]	0.97 ± 0.1 kcal/mol
SAGGSAGGSAPNYIKIRIKFQSDGKRHSMEIFIPDNPKKAKQIAKEMANMGGIEDVEVERYSAGGSAGGSAG [r3_310_TrROS]	0.667 ± 0.16 kcal/mol
KAYKVVFPLPKEGRTVVVYVPEEHGKPLTEEEIAALLREAYPDKEPADLPAEELAKILAAKEGVVRVEVEGS [r1_463_TrMRF]	1 ± 0.13 kcal/mol
SAGGKMKLEVEILENEGTILVRFHFGDKVLEIPLPFPNLTPEDVKEAAEEIAKKLKEEYNIEEVEIESAGGS [r16_249_TrMRF]	2.64 ± 0.28 kcal/mol
SAGMVVTERTEPATGRPYTVTTEEDGSVTGSYPATGDTRSTTLNDRTTFSLPTTSPEVAAAQVEAALAASAG [r14_561_JUSTAS]	-0.137 ± 0.072 kcal/mol
SAGGGPAKEVPILALIKARNPETGEEYELPIVITANSKEDVEAAKGLVDTLAEALRELGFTEVEVEIGSAGG [r13_360_TrMRF]	2.83 ± 0.058 kcal/mol
SAGDMIKIPFNFKDPNGAKPKELEVMISPDPGVITAMFKYKHNNEPKYYMISIPIDPGNGKIEIEIQPMSAG [r5_136_TrROS]	1.46 ± 0.12 kcal/mol
SAGGKPLLIKVKVRLKNGKELTITVREGESLEEILARARELLGKPIEVEKIEVIPLPPKKEVKKKEKSAGGS [r8_285_TrROS_Hall]	2.46 ± 0.093 kcal/mol
SAGGSAGGSAMPKTTVYTIPYESDEEAEARIEEIKAEARARNPEAKVTVTPAGESVNVTIVGSAGGSAGGSA [r18_469_JUSTAS]	-0.376 ± 0.2 kcal/mol
SAGGDWVPIEFTIMVPAEELQEGKPPTAEDIVEELFPPNFNVDIDVQQFPGNGYVYATVKIWVPPGMPSAGG [r13_862_TrROS]	2.4 ± 0.21 kcal/mol
SAGGSMKIVEIKIKRNKNGKLTIEIKVELSEEELEDKEKRKKLIEELAKKLAEELEKKFGIKVEVPSAGGSA [r2_306_TrROS_Hall]	3.28 ± 0.14 kcal/mol
SAGGSAGGSAGPITVPPGAVLLSVEEEGERTRVTVRLPGSGVVETYTFEPGEPVVVELPGSAGGSAGGSAGG [r11_774_JUSTAS]	2.75 ± 0.043 kcal/mol
SAGGSLKDMPVEDLAKYFARKMGYPITDVKVERNPDPPWIKINIEMEHPNDGRRHPHEIWIPKDDISAGGSA [r2_156_TrROS]	0.995 ± 0.083 kcal/mol
SAGGSAGGSAGDKNGKPPPKIEIVPIRMSFRFPELGWWIEIDIYVIKDPAIMISISLYPYSAGGSAGGSAGG [r11_883_TrROS]	4.91 ± 0.35 kcal/mol
SKIEIDEFPWERNPDDGYATIQIKIKVRDPDKKKKDIPHEFPPGSSPDQFWDQIENRAQNNGIKDVEISWSA [r9_1203_TrROS]	0.032 ± 0.13 kcal/mol
SDKVEIWIPIPDGFWVRIKYDKPGKREITIWMPEDNPEFRKHGSMDQFIKHLARKLGLDPDKVKVDMYPMSA [r9_401_TrROS]	3.69 ± 0.14 kcal/mol
SAGMTALFTDSSGKEVTFSHPNLELTVDPETGVVSAYEPESNLKVEVKVAPDKVTVTVYSGSSSKEIPLSAG [r5_786_JUSTAS]	0.574 ± 0.11 kcal/mol
SAGGSAGGGPPGTTTTTISTPDGPVTVTVSPTSVTVTRPGSNETVTSSGSPTTTLEEIAAEIAASAGGSAGG [r6_317_JUSTAS]	2.24 ± 0.11 kcal/mol
SAGGGSMIKKTLEEEPVGESTVSKSTVTLPDGTPVSVTSTTTKVGNTWTTTTTTNYGSSTTTTTTTTSAGGS [r16_476_JUSTAS]	0.156 ± 0.15 kcal/mol
